Assays:
[1] = target: T1, recombinant human CHI3L1 (human, UniProt P36222 22-383); test: BLI; Octet K2; CHI3L1 or IL-13Rα2 ECD immobilised on AR2G biosensor by amine coupling; CD44v3 peptide (15.6, 31.1, 62.5, 125, 250 μM) in the mobile phase; 20 mM HEPES, 150 mM NaCl, 0.05% Tween-20, 1 mM MgCl2 (or 5 mM EDTA); pH 7.4 in the results (pH 7.5 in the methods); heterogeneous ligand model; settings: both partners purified
T1 construct: Chitinase 3-like-1 (CHI3L1, YKL-40), human, recombinant; also called rhCHI3L1; RhCHI3L1; source: bought: R&D Systems (Cat. #2599-CH)

[2] = target: T2, recombinant human IL-13Rα2 ECD (human, UniProt Q14627 27-343); test: as above; settings: both partners purified
T2 construct: Interleukin-13 receptor alpha 2, human, extracellular domain; also called rhIL-13Rα2 ECD; Interleukin-13 receptor alpha 2; source: bought: Sino Biological (Cat. #10350-H08H-20)
T2 sequence (looked up): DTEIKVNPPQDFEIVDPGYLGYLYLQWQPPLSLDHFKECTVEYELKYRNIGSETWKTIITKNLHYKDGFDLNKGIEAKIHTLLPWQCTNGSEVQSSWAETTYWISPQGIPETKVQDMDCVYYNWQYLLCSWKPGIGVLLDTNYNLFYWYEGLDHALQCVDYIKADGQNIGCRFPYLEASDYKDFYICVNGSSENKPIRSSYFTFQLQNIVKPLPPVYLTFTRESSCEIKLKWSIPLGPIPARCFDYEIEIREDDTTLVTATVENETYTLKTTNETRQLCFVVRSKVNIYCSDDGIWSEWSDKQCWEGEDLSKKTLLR

T1 sequence (P36222 22-383): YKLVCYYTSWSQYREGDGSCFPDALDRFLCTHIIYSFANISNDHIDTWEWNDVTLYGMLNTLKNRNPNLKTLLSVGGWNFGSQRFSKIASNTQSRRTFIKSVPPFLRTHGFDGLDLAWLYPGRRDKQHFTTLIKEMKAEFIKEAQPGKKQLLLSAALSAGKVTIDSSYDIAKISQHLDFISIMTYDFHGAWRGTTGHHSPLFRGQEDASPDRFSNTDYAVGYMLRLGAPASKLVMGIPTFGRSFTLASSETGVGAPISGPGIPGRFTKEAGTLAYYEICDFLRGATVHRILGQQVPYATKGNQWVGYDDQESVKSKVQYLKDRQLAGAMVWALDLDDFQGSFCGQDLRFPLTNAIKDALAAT

B1: CD44v3 peptide (peptide)
peptide: GWEPNEENEDERDRHLSFSGSGIDDDEDFISSTI
notes: peptide fragment of the v3 domain of CD44; contains the SGSG heparan sulfate assembly motif; also called peptide fragment of CD44v3 domain; source: synthetic peptide (ChinaPeptides Co., Ltd.)
Kd [1]: 443 ± 21.4 µM | koff [1]: 0.013 s⁻¹ | kon [1]: 29.4 ± 1.39 M⁻¹ s⁻¹ | Kd [2]: 563 ± 15.9 µM | koff [2]: 0.0162 s⁻¹ | kon [2]: 28.8 ± 7.66 M⁻¹ s⁻¹
